Data from patent US20200292536A1.

Legend:
[1] = target: BCL2 peptide Ac-…-amide (amino acids 41-54 of human BCL2 with linkers) (human); assay: imaging mass cytometry; peptide 2.50E-05 M in core (second core); Ab 5 ug/ml
[2] = target: BCL2 peptide Ac-…-amide (amino acids 41-54 of human BCL2 with linkers) (human); assay: imaging mass cytometry; peptide 2.50E-06 M in core (second core); Ab 1 ug/ml
[3] = target: BCL2 peptide Ac-…-amide (amino acids 41-54 of human BCL2 with linkers) (human); assay: imaging mass cytometry; peptide 2.50E-06 M in core (second core); Ab 5 ug/ml
[4] = target: BCL2 peptide Ac-…-amide (amino acids 41-54 of human BCL2 with linkers) (human); assay: imaging mass cytometry; peptide 2.50E-07 M in core (second core); Ab 5 ug/ml
[5] = target: BCL2 peptide Ac-…-amide (amino acids 41-54 of human BCL2 with linkers) (human); assay: imaging mass cytometry; peptide 2.50E-08 M in core (second core); Ab 5 ug/ml
[6] = target: Bovine serum albumin (BSA; Ultra Pure) (bovine) (UniProt P02769); assay: imaging mass cytometry; no peptide (second background core); Ab 10 ug/ml
[7] = target: BCL2 peptide Ac-…-amide (amino acids 41-54 of human BCL2 with linkers) (human); assay: imaging mass cytometry; peptide 2.50E-06 M in core; Ab 10 ug/ml
[8] = target: Bovine serum albumin (BSA; Ultra Pure) (bovine) (UniProt P02769); assay: imaging mass cytometry; no peptide (background core); Ab 5 ug/ml
[9] = target: BCL2 peptide Ac-…-amide (amino acids 41-54 of human BCL2 with linkers) (human); assay: imaging mass cytometry; peptide 2.50E-04 M in core
[10] = target: BCL2 peptide Ac-…-amide (amino acids 41-54 of human BCL2 with linkers) (human); assay: imaging mass cytometry; peptide 2.50E-06 M in core; Ab 5 ug/ml
[11] = target: BCL2 peptide Ac-…-amide (amino acids 41-54 of human BCL2 with linkers) (human); assay: imaging mass cytometry; peptide 2.50E-06 M in core
[12] = target: BCL2 peptide Ac-…-amide (amino acids 41-54 of human BCL2 with linkers) (human); assay: imaging mass cytometry; peptide 2.50E-07 M in core; Ab 5 ug/ml
[13] = target: BCL2 peptide Ac-…-amide (amino acids 41-54 of human BCL2 with linkers) (human); assay: imaging mass cytometry; peptide 2.50E-08 M in core (second core); Ab 10 ug/ml
[14] = target: BCL2 peptide Ac-…-amide (amino acids 41-54 of human BCL2 with linkers) (human); assay: imaging mass cytometry; peptide 2.50E-04 M in core (second core); Ab 10 ug/ml
[15] = target: BCL2 peptide Ac-…-amide (amino acids 41-54 of human BCL2 with linkers) (human); assay: imaging mass cytometry; peptide 2.50E-05 M in core; Ab 5 ug/ml
[16] = target: BCL2 peptide Ac-…-amide (amino acids 41-54 of human BCL2 with linkers) (human); assay: imaging mass cytometry; peptide 2.50E-07 M in core; Ab 1 ug/ml
[17] = target: BCL2 peptide Ac-…-amide (amino acids 41-54 of human BCL2 with linkers) (human); assay: imaging mass cytometry; peptide 2.50E-08 M in core (second core); Ab 1 ug/ml
[18] = target: BCL2 peptide Ac-…-amide (amino acids 41-54 of human BCL2 with linkers) (human); assay: imaging mass cytometry; peptide 2.50E-05 M in core; Ab 1 ug/ml
[19] = target: BCL2 peptide Ac-…-amide (amino acids 41-54 of human BCL2 with linkers) (human); assay: imaging mass cytometry; peptide 2.50E-05 M in core
[20] = target: BCL2 peptide Ac-…-amide (amino acids 41-54 of human BCL2 with linkers) (human); assay: imaging mass cytometry; peptide 2.50E-05 M in core (second core); Ab 1 ug/ml
[21] = target: Bovine serum albumin (BSA; Ultra Pure) (bovine) (UniProt P02769); assay: imaging mass cytometry; no peptide (background cores)
[22] = target: BCL2 peptide Ac-…-amide (amino acids 41-54 of human BCL2 with linkers) (human); assay: imaging mass cytometry; peptide 2.50E-08 M in core; Ab 10 ug/ml
[23] = target: BCL2 peptide Ac-…-amide (amino acids 41-54 of human BCL2 with linkers) (human); assay: imaging mass cytometry; peptide 2.50E-08 M in core
[24] = target: BCL2 peptide Ac-…-amide (amino acids 41-54 of human BCL2 with linkers) (human); assay: imaging mass cytometry; peptide 2.50E-08 M in core; Ab 1 ug/ml
[25] = target: BCL2 peptide Ac-…-amide (amino acids 41-54 of human BCL2 with linkers) (human); assay: imaging mass cytometry; peptide 2.50E-07 M in core (second core); Ab 10 ug/ml
[26] = target: Bovine serum albumin (BSA; Ultra Pure) (bovine) (UniProt P02769); assay: imaging mass cytometry; no peptide (second background core); Ab 5 ug/ml
[27] = target: BCL2 peptide Ac-…-amide (amino acids 41-54 of human BCL2 with linkers) (human); assay: imaging mass cytometry; peptide 2.50E-06 M in core (second core); Ab 10 ug/ml
[28] = target: BCL2 peptide Ac-…-amide (amino acids 41-54 of human BCL2 with linkers) (human); assay: imaging mass cytometry; peptide 2.50E-05 M in core (second core); Ab 10 ug/ml
[29] = target: BCL2 peptide Ac-…-amide (amino acids 41-54 of human BCL2 with linkers) (human); assay: imaging mass cytometry; peptide 2.50E-04 M in core; Ab 1 ug/ml
[30] = target: BCL2 peptide Ac-…-amide (amino acids 41-54 of human BCL2 with linkers) (human); assay: imaging mass cytometry; peptide 2.50E-07 M in core; Ab 10 ug/ml
[31] = target: Bovine serum albumin (BSA; Ultra Pure) (bovine) (UniProt P02769); assay: imaging mass cytometry; no peptide (background core); Ab 1 ug/ml

Sequence of BCL2 peptide Ac-…-amide (amino acids 41-54 of human BCL2 with linkers) (human) (peptide, as listed by the source): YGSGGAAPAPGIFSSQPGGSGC
Sequence of UniProt P02769 (P02769 25-607 limits assumed): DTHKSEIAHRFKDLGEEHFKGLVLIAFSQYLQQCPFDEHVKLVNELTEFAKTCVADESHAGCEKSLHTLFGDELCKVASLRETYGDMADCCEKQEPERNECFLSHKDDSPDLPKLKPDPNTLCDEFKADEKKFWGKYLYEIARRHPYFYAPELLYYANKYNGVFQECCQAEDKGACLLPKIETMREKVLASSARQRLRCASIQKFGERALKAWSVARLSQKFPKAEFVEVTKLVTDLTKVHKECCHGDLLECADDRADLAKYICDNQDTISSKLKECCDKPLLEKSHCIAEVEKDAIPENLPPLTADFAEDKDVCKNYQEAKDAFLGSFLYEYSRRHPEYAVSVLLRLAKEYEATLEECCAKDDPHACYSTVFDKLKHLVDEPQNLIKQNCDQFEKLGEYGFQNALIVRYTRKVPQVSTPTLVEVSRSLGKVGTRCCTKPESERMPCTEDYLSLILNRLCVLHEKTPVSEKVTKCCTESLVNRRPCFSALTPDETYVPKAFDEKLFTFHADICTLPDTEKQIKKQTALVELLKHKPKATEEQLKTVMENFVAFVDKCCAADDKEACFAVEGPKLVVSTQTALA

Substance: Fluidigm EPR17509-^146Nd antibody
- Integrated Ion counts (per 150 micron square ROI) [1]: 15100 ion counts
- Integrated Ion counts (per 150 micron square ROI) [2]: 7700 ion counts
- Integrated Ion counts (per 150 micron square ROI) [3]: 3900 ion counts
- Integrated Ion counts (per 150 micron square ROI) [4]: 1400 ion counts
- Integrated Ion counts (per 150 micron square ROI) [5]: 2070 ion counts
- Integrated Ion counts (per 150 micron square ROI) [6]: 1160 ion counts
- Integrated Ion counts (per 150 micron square ROI) [7]: 789000 ion counts
- Integrated Ion counts (per 150 micron square ROI) [8]: 1080 ion counts
- Average Ion count [9]: 58300 ion counts
- Ion count above background [9]: 56900 ion counts
- Moles ^146Nd Ab detected per ROI [9]: 3.2e-17 mol
- ^146Nd Ab/peptide [9]: 0.14%
- Integrated Ion counts (per 150 micron square ROI) [10]: 4290 ion counts
- Average Ion count [11]: 6400 ion counts
- Ion count above background [11]: 522 ion counts
- Moles ^146Nd Ab detected per ROI [11]: 2.93e-18 mol
- ^146Nd Ab/peptide [11]: 1.3%
- Integrated Ion counts (per 150 micron square ROI) [12]: 1370 ion counts
- Integrated Ion counts (per 150 micron square ROI) [13]: 1720 ion counts
- Integrated Ion counts (per 150 micron square ROI) [14]: 880000 ion counts
- Integrated Ion counts (per 150 micron square ROI) [15]: 16600 ion counts
- Integrated Ion counts (per 150 micron square ROI) [16]: 1580 ion counts
- Integrated Ion counts (per 150 micron square ROI) [17]: 1410 ion counts
- Integrated Ion counts (per 150 micron square ROI) [18]: 32400 ion counts
- Average Ion count [19]: 32600 ion counts
- Ion count above background [19]: 31500 ion counts
- Moles ^146Nd Ab detected per ROI [19]: 1.76e-17 mol
- ^146Nd Ab/peptide [19]: 0.78%
- Integrated Ion counts (per 150 micron square ROI) [20]: 43900 ion counts
- Average Ion count [21]: 1280 ion counts
- Integrated Ion counts (per 150 micron square ROI) [22]: 1230 ion counts
- Average Ion count [23]: 1310 ion counts
- Ion count above background [23]: 134 ion counts
- Moles ^146Nd Ab detected per ROI [23]: 7.5e-20 mol
- ^146Nd Ab/peptide [23]: 3.33%
- Integrated Ion counts (per 150 micron square ROI) [24]: 1450 ion counts
- Integrated Ion counts (per 150 micron square ROI) [25]: 1760 ion counts
- Integrated Ion counts (per 150 micron square ROI) [26]: 2380 ion counts
- Integrated Ion counts (per 150 micron square ROI) [27]: 3910 ion counts
- Integrated Ion counts (per 150 micron square ROI) [28]: 48700 ion counts
- Integrated Ion counts (per 150 micron square ROI) [29]: 59300 ion counts
- Integrated Ion counts (per 150 micron square ROI) [30]: 1550 ion counts
- Integrated Ion counts (per 150 micron square ROI) [31]: 1350 ion counts
